Data on three molecules can be found in paper PMC7852545, “Cell fate determined by the activation balance between PKR and SPHK1” (Cell Death and Differentiation, 2020).

For assay [1], the target named is SPHK1 (sphingosine kinase 1) (UniProt Q9NYA1). In words: Co-IP of Flag-PKR with endogenous SPHK1. The settings on record: reference: wild-type PKR-Flag; sites T451.
For assay [2] the target is unchanged. The experiment in a line: GST-SPHK1 pull-down of Flag-purified PKR. To be noted: reference: wild-type PKR-Flag; sites T451.
A further assay has as its target T1, GST-PKR (human, UniProt P19525 1-551).
T1 construct: double-stranded RNA-dependent protein kinase R (PKR), human, full-length cDNA; also called PKR (in vitro); source: prokaryotic expression (pGEX-4T1/pET28a vectors)
In words: pull-down; Flag-tagged SPHK1 (wild type, 225A, 225D) immunoprecipitated with anti-Flag from HEK293T lysates, purified and co-incubated with GST-PKR. To be noted: both partners purified.

A further assay deals with T2, PKR^451A-Flag (human, UniProt P19525 1-551, T451A).
T2 construct: double-stranded RNA-dependent protein kinase R (PKR), human, full-length cDNA, point mutant at Thr451; also called T451A; source: HEK293T, transfected, in lysate; also purified from the lysate for the GST pulldown; not shown: Flag, C-terminal, kept
The experiment in a line: pull-down; Flag-tagged PKR (wild type, 451A, 451D) purified from HEK293T and co-incubated with GST-SPHK1. The settings on record: both partners purified.

Another assay has as its target T3, PKR^451D-Flag (human, UniProt P19525 1-551, T451D).
T3 construct: double-stranded RNA-dependent protein kinase R (PKR), human, full-length cDNA, point mutant at Thr451; also called T451D; source: HEK293T, transfected, in lysate; also purified from the lysate for the GST pulldown; not shown: Flag, C-terminal, kept
The assay is described as above. To be noted: both partners purified.

In a further assay the target is T4, PKR-Flag (wild type) (human, UniProt P19525 1-551).
T4 construct: double-stranded RNA-dependent protein kinase R (PKR), human, full-length cDNA; also called wild-type PKR; Flag-PKR; source: HEK293T, transfected, in lysate; also purified from the lysate for the GST pulldown; not shown: Flag, C-terminal, kept
Described as above. The settings on record: both partners purified.

T3 sequence (P19525 whole entry T451D): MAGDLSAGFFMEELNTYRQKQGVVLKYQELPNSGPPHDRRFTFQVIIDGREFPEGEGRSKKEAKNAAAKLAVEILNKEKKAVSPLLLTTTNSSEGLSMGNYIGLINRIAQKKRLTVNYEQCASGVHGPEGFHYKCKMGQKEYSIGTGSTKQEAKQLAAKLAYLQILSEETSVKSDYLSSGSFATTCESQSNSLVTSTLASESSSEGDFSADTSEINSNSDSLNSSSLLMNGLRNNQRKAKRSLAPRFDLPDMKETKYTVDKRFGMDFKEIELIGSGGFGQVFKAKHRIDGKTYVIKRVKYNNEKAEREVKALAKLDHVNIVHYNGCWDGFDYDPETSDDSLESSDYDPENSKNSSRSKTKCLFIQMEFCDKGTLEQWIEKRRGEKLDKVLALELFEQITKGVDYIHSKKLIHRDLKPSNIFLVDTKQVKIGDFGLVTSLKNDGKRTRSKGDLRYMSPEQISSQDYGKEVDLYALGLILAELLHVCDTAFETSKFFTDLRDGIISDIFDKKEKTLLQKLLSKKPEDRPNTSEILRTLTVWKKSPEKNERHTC
T4 sequence (P19525 whole entry): as the sequence (P19525 whole entry T451D) above, with D451T counted along it
T1 sequence (P19525 whole entry): as the sequence (P19525 whole entry T451D) above, with D451T counted along it
T2 sequence (P19525 whole entry T451A): as the sequence (P19525 whole entry T451D) above, with D451A counted along it

For “PKR (dsRNA-dependent protein kinase R) (from UniProt P19525) T451A”, the “binding against the reference” value in assay [1] and in assay [2] was “stronger” each time.

B1: SPHK1^225D-Flag (phosphomimetic mutant of SPHK1) (enzyme, human, UniProt Q9NYA1 1-384, looked up)
chain: MDPAGGPRGVLPRPCRVLVLLNPRGGKGKALQLFRSHVQPLLAEAEISFTLMLTERRNHARELVRSEELGRWDALVVMSGDGLMHEVVNGLMERPDWETAIQKPLCSLPAGSGNALAASLNHYAGYEQVTNEDLLTNCTLLLCRRLLSPMNLLSLHTASGLRLFSVLSLAWGFIADVDLESEKYRRLGEMRFTLGTFLRLAALRTYRGRLAYLPVGRVGSKTPADPVVVQQGPVDAHLVPLEEPVPSHWTVVPDEDFVLVLALLHSHLGSEMFAAPMGRCAAGVMHLFYVRAGVSRAMLLRLFLAMEKGRHMEYECPYLVYVPVVAFRLEPKDGKGVFAVDGELMVSEAVQGQVHPNYFWMVSGCVEPPPSWKPQQMPPPEEPL
notes: sphingosine kinase 1 (SPHK1), human, full-length cDNA, point mutant at Ser225; source: HEK293T, transfected, in lysate; also purified from the lysate with anti-Flag for the GST pulldown; not shown: Flag, C-terminal, kept
B1: in the assay with GST-PKR, the binding result is given as “binds”.

B2: GST-SPHK1 (enzyme, human, UniProt Q9NYA1 1-384, looked up)
chain: MDPAGGPRGVLPRPCRVLVLLNPRGGKGKALQLFRSHVQPLLAEAEISFTLMLTERRNHARELVRSEELGRWDALVVMSGDGLMHEVVNGLMERPDWETAIQKPLCSLPAGSGNALAASLNHYAGYEQVTNEDLLTNCTLLLCRRLLSPMNLLSLHTASGLRLFSVLSLAWGFIADVDLESEKYRRLGEMRFTLGTFLRLAALRTYRGRLAYLPVGRVGSKTPASPVVVQQGPVDAHLVPLEEPVPSHWTVVPDEDFVLVLALLHSHLGSEMFAAPMGRCAAGVMHLFYVRAGVSRAMLLRLFLAMEKGRHMEYECPYLVYVPVVAFRLEPKDGKGVFAVDGELMVSEAVQGQVHPNYFWMVSGCVEPPPSWKPQQMPPPEEPL
notes: sphingosine kinase 1 (SPHK1), human, full-length cDNA in pGEX-4T1; pGEX-4T1 normally adds GST at the N-terminus; also called purified SPHK1; source: Rosetta bacterial cells, purified on Glutathione Sepharose beads
In the case of B2, the binding result with PKR^451A-Flag, with PKR^451D-Flag and with PKR-Flag (wild type) was “binds” throughout.
